Where a chain is given by its changes, count along the chain named.
T1: PDE6 β-subunit (Pβ), catalytic subunit of bovine rod photoreceptor phosphodiesterase (bovine, UniProt P23439 1-853)
T1 sequence (looked up): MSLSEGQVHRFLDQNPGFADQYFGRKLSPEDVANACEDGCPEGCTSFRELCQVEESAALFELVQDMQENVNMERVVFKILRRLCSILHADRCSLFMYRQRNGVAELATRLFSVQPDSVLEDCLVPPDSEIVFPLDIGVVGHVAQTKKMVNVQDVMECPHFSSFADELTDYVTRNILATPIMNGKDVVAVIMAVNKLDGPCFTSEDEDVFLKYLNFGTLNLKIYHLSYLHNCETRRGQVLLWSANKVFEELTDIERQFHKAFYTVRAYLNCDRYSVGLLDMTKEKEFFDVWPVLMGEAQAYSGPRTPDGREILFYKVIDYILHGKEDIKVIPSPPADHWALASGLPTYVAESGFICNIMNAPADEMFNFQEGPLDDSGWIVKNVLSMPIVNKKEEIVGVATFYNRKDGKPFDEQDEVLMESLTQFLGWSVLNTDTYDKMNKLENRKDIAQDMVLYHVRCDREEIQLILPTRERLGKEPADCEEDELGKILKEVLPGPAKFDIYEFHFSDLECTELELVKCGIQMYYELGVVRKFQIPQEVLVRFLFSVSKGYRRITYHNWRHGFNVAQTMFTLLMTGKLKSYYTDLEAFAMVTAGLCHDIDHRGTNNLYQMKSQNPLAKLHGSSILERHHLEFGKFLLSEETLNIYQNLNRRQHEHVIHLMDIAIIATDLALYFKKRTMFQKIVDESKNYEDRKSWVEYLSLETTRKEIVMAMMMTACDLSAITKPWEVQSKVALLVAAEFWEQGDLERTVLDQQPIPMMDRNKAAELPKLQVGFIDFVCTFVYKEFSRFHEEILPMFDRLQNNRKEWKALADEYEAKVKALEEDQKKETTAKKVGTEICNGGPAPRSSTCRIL

T2: PDE6 α-subunit (Pα), catalytic subunit of bovine rod photoreceptor phosphodiesterase (bovine, UniProt P11541 1-859)
T2 sequence (looked up): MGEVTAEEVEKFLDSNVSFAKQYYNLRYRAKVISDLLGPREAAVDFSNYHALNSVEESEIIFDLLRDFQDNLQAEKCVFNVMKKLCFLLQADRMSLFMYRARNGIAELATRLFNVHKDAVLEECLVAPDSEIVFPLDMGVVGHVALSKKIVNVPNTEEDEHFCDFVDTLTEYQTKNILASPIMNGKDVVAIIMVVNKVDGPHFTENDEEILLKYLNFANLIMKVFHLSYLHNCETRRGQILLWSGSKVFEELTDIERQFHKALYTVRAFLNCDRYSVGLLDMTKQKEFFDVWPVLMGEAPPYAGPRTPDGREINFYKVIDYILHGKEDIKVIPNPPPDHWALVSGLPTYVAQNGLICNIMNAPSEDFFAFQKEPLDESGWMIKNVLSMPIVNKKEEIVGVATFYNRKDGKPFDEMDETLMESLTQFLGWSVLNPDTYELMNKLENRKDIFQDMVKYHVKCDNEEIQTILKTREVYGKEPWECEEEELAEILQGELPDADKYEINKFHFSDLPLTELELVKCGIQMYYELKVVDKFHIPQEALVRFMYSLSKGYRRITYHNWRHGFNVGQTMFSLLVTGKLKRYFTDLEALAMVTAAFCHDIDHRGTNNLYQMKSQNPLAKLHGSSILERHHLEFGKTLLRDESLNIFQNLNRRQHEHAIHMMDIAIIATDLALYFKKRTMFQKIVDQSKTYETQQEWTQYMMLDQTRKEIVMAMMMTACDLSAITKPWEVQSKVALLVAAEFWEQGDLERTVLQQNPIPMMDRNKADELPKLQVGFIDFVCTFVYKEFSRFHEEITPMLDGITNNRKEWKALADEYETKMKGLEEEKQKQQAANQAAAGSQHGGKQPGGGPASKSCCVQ

B1: PDE6 inhibitory γ-subunit (Pγ), endogenous, in the purified PDE6 holoenzyme (natural protein, bovine, UniProt P04972 1-87, looked up)
chain: MNLEPPKAEIRSATRVMGGPVTPRKGPPKFKQRQTRQFKSKPPKKGVQGFGDDIPGMEGLGTDITVICPWEAFNHLELHELAQYGII
B2: Pγ 30C-MBP (natural protein, bovine, UniProt P04972 1-87, looked up)
chain: B1 chain with F30C, C68S
modifications: 4-(N-maleimido)benzophenone (MBP) on Cys30
B3: Pγ 73C-MBP (natural protein, bovine, UniProt P04972 1-87, looked up)
chain: B1 chain with C68S, F73C
modifications: 4-(N-maleimido)benzophenone (MBP) on Cys73
B4: wild-type Pγ, recombinant (Pγ 1–87) (natural protein, bovine, UniProt P04972 1-87, looked up)
chain: B1 chain

What was measured:
Test in all cases: cross-linking
[1] = target: PDE6 catalytic dimer (Pαβ) (bovine, UniProt P11541 1-859; P23439 1-853)
[2] = target: T1, PDE6 β-subunit (Pβ), catalytic subunit …
[3] = target: T2, PDE6 α-subunit (Pα), catalytic subunit …

Binder | binding result [1] | binding result [2] | binding result [3]
B1 | binds |  | 
B2 |  | binds | 
B3 |  | binds | binds
B4 | binds |  | 
